Measured values reported in patent US20060148057A1, “Thioredoxin mutants and uses thereof” (priority 2002, published 2006).
Positions count from the first letter of the chain named. Names may count otherwise. Values belong to the molecule of their own block, whether it stands above or below them.

Key:
ASK1 = biological target: T1, ASK1 (Homo sapiens, UniProt Q99683); assay: GST-Trx pull-down assay; type: binding; details: for ASK1 bound to GST-Trx: in the presence of 1 mM DTT; for association of GST-Trx with ASK1: in the presence of 1 mM H2O2
T1 construct: wild type ASK1 (ASK1-WT, aa 1-1375); expressed in transfected cells; host or cells: BAEC
T1 sequence (Q99683 1-1374): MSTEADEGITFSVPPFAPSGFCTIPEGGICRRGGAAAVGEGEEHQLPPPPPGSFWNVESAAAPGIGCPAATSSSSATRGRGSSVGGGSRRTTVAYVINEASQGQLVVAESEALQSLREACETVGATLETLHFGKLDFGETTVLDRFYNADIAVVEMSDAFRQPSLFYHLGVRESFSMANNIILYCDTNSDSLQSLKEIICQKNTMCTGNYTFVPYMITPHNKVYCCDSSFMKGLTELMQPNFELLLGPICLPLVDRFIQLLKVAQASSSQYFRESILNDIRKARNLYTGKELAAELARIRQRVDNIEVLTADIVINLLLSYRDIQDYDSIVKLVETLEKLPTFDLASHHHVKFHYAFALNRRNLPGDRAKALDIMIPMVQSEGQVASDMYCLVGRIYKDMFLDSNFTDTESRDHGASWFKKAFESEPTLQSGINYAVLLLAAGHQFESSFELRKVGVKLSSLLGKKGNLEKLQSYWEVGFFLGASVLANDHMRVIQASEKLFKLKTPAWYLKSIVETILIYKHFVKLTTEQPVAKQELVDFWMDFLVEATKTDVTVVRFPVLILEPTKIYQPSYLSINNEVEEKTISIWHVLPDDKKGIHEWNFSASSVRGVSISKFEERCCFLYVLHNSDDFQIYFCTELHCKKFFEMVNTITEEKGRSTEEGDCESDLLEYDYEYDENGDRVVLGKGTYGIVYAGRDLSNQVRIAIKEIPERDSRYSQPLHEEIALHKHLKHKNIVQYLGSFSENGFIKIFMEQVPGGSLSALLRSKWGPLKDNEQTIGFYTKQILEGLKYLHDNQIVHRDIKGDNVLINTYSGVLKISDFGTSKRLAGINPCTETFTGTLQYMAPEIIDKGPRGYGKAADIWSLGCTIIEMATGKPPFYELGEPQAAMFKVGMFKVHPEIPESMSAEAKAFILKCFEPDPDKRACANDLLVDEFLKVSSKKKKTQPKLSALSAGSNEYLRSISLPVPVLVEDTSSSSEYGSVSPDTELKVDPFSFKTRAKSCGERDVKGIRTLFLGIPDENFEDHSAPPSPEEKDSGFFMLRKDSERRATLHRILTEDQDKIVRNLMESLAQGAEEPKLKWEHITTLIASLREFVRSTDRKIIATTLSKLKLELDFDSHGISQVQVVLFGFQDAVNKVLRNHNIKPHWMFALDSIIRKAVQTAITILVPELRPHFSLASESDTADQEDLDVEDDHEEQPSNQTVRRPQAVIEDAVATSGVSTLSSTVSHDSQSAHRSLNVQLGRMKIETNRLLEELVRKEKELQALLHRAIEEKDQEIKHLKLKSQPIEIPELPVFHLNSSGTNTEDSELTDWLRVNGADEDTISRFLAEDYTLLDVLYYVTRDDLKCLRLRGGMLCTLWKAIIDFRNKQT
Procedure: GST-Trx pull-down assay: GST fusion protein preparation and GST pull-down assay were performed as described previously. […] Briefly, GST-Trx fusion proteins expressed in Escherichia coli XL-1 blue were affinity purified on glutathione-Sepharose beads (Pharmacia). 400 μg of cell lysates expressing HA-tagged ASK1 were incubated with 10 μg of GST-Trx bound to glutathione-Sepharose in the lysis buffer containing either 1 mM DTT or 1 mM H2O2. The beads were washed 4 times with the lysis buffer before the addition of boiling Laemmli sample buffer. Bound ASK1 proteins were resolved on SDS-PAGE and detected by Western blot with anti-HA.
Hydrogen peroxide dissociates wild type Trx but not Trx-C32S or Trx-C35S from ASK1 in vitro. Association of ASK1 with various Trx proteins - Trx-WT, Trx-CS, Trx-C32S or Trx-C35S in the presence of 1 mM DTT or H202 in an in vitro GST pull-down assay. Bacteria-expressed GST-Trx proteins were purified and protein concentrations were determined by SDS-PAGE (FIG. 2A). […] ASK1 bound to GST-Trx was determined by Western blot with anti-HA.

Akt = assay: ASK1-induced inhibition of IGF1-induced Akt phosphorylation in EC (Western blot p-Ser473); type: cell-based, Bovine; details: co-expression with ASK1, IGF1 10 ng/ml for 10 min
Procedure: EC were transfected with plasmids as indicated: control vector (VC), HA-Akt, HA-ASK1 with different Trx constructs. Cells were treated with IGF1 (10 ng/ml for 10 min). Akt hosphorylation was examined by western blot with phospho-Akt (Ser473)-specific antibody (p-Akt). Akt and ASK1 expression were determined by western blot with anti-HA.
To determine a role of ASK1 in ROS/TNF-induced IR (impairment of insulin/IGF1 signaling) in EC, the effects of ASK1 activation on IGF1-induced phosphorylation of IRS-1, Akt and eNOS activity were examined. IGF-1 was chosen because cultured EC express IGF1 receptor at higher level than that of insulin receptor. BAEC were transfected with VC or ASK1 expression construct, cells were treated with IGF1 (10 ng/ml) for indicated time. SOCS3 was used as a control which has been shown as a suppressor of IRS-1 activation. Activation (tyrosine phosphorylation) of IRS-1 was determined by IP/Western blot with anti-phosphotyrosine. Akt phosphorylation at Ser-473, a hallmarker for Atk activity was determined by Western blot with p-Ser473-specific antibody. The eNOS enzymatic activity was also by an enzymatic assay based on the conversion of 3H-L-arginine to 3H-citrulline (Calbiochem, Nitric Oxide Synthase Assay Kit).
To determine if Trx protects ASK1-induced inhibition on IGF1 signaling, Trx and ASK1 were coexpressed as in the above experiments. […] To test this, the effects of TZDs (insulin-sensitizers) and statins on ASK1 activity were tested. […] Inhibition of ASK1 may due to their anti-oxidant activities of these drugs which may be indirect by inhibiting TNF-dependent generation of ROS.

ASK1 bound to GST-Trx (ASK1): bound | association of GST-Trx with ASK1 (ASK1): disrupted the association
B1: thioredoxin (protein)
chain: MVKQIESKTAFQEALDAAGDKLVVVDFSATWCGPCKMIKPFFHSLSEKYSNVIFLEVDVDDCQDVASECEVKCMPTFQFFKKGQKVGEFSGANKEKLEATINELV
modifications: Flag tag or GST fusion
notes: Flag-tagged or GST fusion
ASK1-induced reduction of Akt phosphorylation (Akt): prevents

ASK1 bound to GST-Trx (ASK1): bound | association of GST-Trx with ASK1 (ASK1): retained their associations with ASK1
B2: Trx-C32S: C32S single mutant of Trx at the catalytic site, SEQ ID NO:2 (protein)
chain: B1 chain with C32S
ASK1-induced reduction of Akt phosphorylation (Akt): prevents

ASK1 bound to GST-Trx (ASK1): bound | association of GST-Trx with ASK1 (ASK1): retained their associations with ASK1
B3: Trx-C35S: C35S single mutant of Trx at the catalytic site, SEQ ID NO:3 (protein)
chain: B1 chain with C35S
ASK1-induced reduction of Akt phosphorylation (Akt): prevents
